Assay results reported in patent US20190218277A1 (Chugai, published 2019).
Changes are numbered by the printed parent chain.

B1: DG_3CH1049-SG182/3CL668-SK1 (antibody, V domains shown)
VH: QVQLVQSGAEVKKPGASVKVSCKASGYTFTSYYMHWVRQAPGQGLEWMGVINPRGGSRRSAQKFQGRVTMTRDTSTSTVYMELSSLRSEDTAVYYCARGGEALFYDSYTTPFDGGSWWFDPWGQGSLVTVSS
VL: DIQLTQSPSSLSASVGDRVTITCQASQDIRKYLNWYQQKPGKAPKLLIYDASNLKTGVPSRFSGSGSGTDFTLTISSLQPEDVATYYCQQFEDLPITFGQGTRLQIKR
B2: DG_3CH1049-SG182/3CL666-SK1 (antibody, V domains shown)
VH: B1 VH
VL: B1 VL with D28E, E92D
B3: DG_3CH1046-SG182/3CL668-SK1 (antibody, V domains shown)
VH: B1 VH with E101R
VL: B1 VL
B4: DG_3CH1049-SG182/3CL633-SK1 (antibody, V domains shown)
VH: B1 VH
VL: B1 VL with E92D
B5: DG_3CH1046-SG182/3CL666-SK1 (antibody, V domains shown)
VH: B1 VH with E101R
VL: B1 VL with D28E, E92D
B6: DG_3CH1000-SG1095/3CL012-SK1 (antibody, human IgG1, kappa, L234A L235A)
heavy: QVQLVQSGPDVEKPGASVKVSCKASGYTFTSYYMHWVRQAPGQGLEWMGVINPRGGSRRSAQKFQGRITMTRDTSTSTVYMELSSLRSEDTAVYYCARGGRALFYDSYTTPFDGGSWWFDPWGQGSLVTVSSASTKGPSVFPLAPSSKSTSGGTAALGCLVKDYFPEPVTVSWNSGALTSGVHTFPAVLQSSGLYSLSSVVTVPSSSLGTQTYICNVNHKPSNTKVDKRVEPKSCDKTHTCPPCPAPEAAGGPSVFLFPPKPKDTLMISRTPEVTCVVVDVSHEDPEVKFNWYVDGVEVHNAKTKPREEQYNSTYRVVSVLTVLHQDWLNGKEYKCKVSNAALPAPISKTISKAKGQPREPQVYTLPPSREEMTKNQVSLTCLVKGFYPSDIAVEWESNGQPENNYKTTPPVLDSDGSFFLYSKLTVDKSRWQQGNVFSCSVMHEALHNHYTQKSLSLSP
light: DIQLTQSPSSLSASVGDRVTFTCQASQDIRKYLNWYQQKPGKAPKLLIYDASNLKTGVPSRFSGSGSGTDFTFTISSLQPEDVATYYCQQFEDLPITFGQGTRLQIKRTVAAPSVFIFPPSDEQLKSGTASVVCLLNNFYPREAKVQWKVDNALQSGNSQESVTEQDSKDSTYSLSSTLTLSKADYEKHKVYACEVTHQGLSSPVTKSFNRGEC
B7: DG_3CH1047-SG1106/3CL012-SK1 (antibody)
heavy: B6 heavy with R101E, M443L, N449A, Q453R, S455E
light: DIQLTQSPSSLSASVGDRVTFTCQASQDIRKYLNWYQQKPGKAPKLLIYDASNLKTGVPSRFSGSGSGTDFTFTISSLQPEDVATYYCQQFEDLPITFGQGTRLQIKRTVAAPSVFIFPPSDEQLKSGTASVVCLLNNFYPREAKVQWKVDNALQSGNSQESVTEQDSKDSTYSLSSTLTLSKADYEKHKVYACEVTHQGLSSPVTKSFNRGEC
B8: DG_3CH1047-SG1106/3CL119-SK1 (antibody)
heavy: B6 heavy with R101E, M443L, N449A, Q453R, S455E
light: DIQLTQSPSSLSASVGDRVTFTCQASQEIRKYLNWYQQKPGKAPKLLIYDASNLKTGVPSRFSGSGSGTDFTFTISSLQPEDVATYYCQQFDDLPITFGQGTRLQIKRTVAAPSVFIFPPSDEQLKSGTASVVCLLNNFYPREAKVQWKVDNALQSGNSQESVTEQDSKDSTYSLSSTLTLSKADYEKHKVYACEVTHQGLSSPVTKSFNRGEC
B9: DG_3CH1000-SG1106/3CL012-SK1 (antibody)
heavy: B6 heavy with M443L, N449A, Q453R, S455E
light: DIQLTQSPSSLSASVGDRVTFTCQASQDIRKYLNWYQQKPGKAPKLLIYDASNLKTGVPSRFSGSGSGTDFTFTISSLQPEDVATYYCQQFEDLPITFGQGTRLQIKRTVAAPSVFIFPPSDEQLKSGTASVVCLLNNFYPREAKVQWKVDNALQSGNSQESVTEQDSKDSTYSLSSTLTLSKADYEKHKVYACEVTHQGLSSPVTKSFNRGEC
B10: DG_3CH953-SG1106/3CL119-SK1 (antibody)
heavy: B6 heavy with Y32N, M34I, M443L, N449A, Q453R, S455E
light: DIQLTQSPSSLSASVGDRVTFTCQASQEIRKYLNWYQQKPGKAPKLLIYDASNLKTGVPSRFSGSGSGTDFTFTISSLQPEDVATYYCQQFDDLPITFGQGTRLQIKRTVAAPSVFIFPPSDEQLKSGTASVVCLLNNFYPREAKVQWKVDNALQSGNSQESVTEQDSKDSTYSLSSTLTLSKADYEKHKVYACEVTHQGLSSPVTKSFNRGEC
B11: DG_3CH1000-SG1106/3CL119-SK1 (antibody)
heavy: B6 heavy with M443L, N449A, Q453R, S455E
light: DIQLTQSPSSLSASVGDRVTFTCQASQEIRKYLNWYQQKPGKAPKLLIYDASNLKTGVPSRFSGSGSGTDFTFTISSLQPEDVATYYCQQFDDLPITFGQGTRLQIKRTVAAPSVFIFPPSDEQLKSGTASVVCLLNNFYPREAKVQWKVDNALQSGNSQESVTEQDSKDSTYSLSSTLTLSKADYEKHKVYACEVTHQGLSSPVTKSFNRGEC
B12: DG_3CH1049-SG182/3CL012-SK1 (antibody, V domains shown)
VH: B1 VH
VL: B1 VL with I21F, L73F
B13: DG_3CH1000-SG1095/3CL119-SK1 (antibody)
heavy: B6 heavy
light: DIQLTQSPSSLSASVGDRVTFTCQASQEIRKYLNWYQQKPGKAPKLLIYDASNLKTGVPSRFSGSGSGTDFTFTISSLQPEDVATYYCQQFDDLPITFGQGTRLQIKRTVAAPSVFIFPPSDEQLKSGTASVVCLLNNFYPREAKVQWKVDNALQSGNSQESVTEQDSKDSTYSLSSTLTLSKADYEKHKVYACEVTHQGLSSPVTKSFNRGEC
B14: DG_3CH1047-SG1095/3CL012-SK1 (antibody, human IgG1, kappa, L234A L235A)
heavy: B6 heavy with R101E
light: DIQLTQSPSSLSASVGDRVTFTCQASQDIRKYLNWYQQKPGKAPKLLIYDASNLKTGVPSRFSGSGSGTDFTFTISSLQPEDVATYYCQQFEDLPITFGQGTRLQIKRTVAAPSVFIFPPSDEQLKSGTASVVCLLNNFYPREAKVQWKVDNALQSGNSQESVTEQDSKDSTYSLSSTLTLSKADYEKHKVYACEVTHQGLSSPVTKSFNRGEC
B15: DG_3CH1046-SG182/3CL-SK1 (antibody, V domains shown)
VH: B1 VH with E101R
VL: B1 VL with I21F, L73F, E92D
B16: DG_3CH1047-SG1095/3CL119-SK1 (antibody)
heavy: B6 heavy with R101E
light: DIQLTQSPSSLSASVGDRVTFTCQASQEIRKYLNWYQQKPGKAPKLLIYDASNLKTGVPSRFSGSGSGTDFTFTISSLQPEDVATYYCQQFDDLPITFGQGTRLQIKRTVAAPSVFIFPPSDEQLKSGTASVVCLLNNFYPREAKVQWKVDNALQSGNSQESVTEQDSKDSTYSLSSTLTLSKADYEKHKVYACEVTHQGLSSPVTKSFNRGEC
B17: DG_3CH1046-SG182/3CL012-SK1 (antibody, V domains shown)
VH: B1 VH with E101R
VL: B1 VL with I21F, L73F
B18: DG_3CH1000-SG1095/3CL-SK1 (antibody, human IgG1, kappa, L234A L235A)
heavy: B6 heavy
light: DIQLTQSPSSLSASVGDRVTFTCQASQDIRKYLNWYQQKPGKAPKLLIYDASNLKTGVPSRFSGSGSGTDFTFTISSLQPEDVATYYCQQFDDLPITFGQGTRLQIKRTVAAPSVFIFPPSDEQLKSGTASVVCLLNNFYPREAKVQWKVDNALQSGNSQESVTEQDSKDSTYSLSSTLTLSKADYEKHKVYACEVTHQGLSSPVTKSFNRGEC
B19: DG_3CH1047-SG182/3CL666-SK1 (antibody, V domains shown)
VH: B1 VH with A9P, E10D, K12E, V68I
VL: B1 VL with D28E, E92D
B20: DG_3CH1046-SG182/3CL633-SK1 (antibody, V domains shown)
VH: B1 VH with E101R
VL: B1 VL with E92D
B21: DG_3CH1046-SG182/3CL119-SK1 (antibody, V domains shown)
VH: B1 VH with E101R
VL: B1 VL with I21F, D28E, L73F, E92D
B22: DG_3CH1049-SG182/3CL119-SK1 (antibody, V domains shown)
VH: B1 VH
VL: B1 VL with I21F, D28E, L73F, E92D
B23: DG_3CH1047-SG182/3CL633-SK1 (antibody, V domains shown)
VH: B1 VH with A9P, E10D, K12E, V68I
VL: B1 VL with E92D
B24: DG_3CH1049-SG182/3CL-SK1 (antibody, V domains shown)
VH: B1 VH
VL: B1 VL with I21F, L73F, E92D

Legend:
[1] = target: T1, Recombinant soluble E protein (0.8E-His) from DENV-3 (DENV-3, UniProt P27915 281-673)
T1 construct: also called DENV-3 E protein; DV3

[2] = target: T2, Recombinant soluble E protein (0.8E-His) from DENV-1 (DENV-1, UniProt P27909 281-675)
T2 construct: also called DENV-1 E protein; DV1

[3] = target: T3, Recombinant soluble E protein (0.8E-His) from DENV-4 (DENV-4, UniProt P09866 280-674); test: SPR, Biacore T200
T3 construct: also called DENV-4 E protein; DV4

[4] = target: T4, Recombinant soluble E protein (0.8E-His) from DENV-2 (DENV-2, UniProt P14340 281-675); test: SPR, Biacore T200
T4 construct: also called DENV-2 E protein; DV2

Binder | Kd [1] | Kd [2] | binding result [3] | binding result [4]
B1 | 1.55 pM | 1.7 nM | binds | binds
B2 | 2.95 pM | 1.72 nM | binds | binds
B3 | 0.559 pM | 1.56 nM | binds | binds
B4 | 4.1 pM | 1.73 nM | binds | binds
B5 | 0.47 pM | 1.52 nM | binds | binds
B6 | 0.959 pM | 1.83 nM | binds | binds
B7 | 2.36 pM | 2.18 nM | binds | binds
B8 | 4.36 pM | 2.29 nM | binds | binds
B9 | 0.101 pM | 1.91 nM | binds | binds
B10 | 2.17 pM | 1.96 nM | binds | binds
B11 | 1.82 pM | 1.91 nM | binds | binds
B12 | 1.05 pM | 2.26 nM | binds | binds
B13 | 0.0428 pM | 1.92 nM | binds | binds
B14 | 3.17 pM | 2.21 nM | binds | binds
B15 | 0.213 pM | 1.91 nM | binds | binds
B16 | 3.79 pM | 2.23 nM | binds | binds
B17 | 0.145 pM | 1.92 nM | binds | binds
B18 | 16.8 pM | 1.8 nM | binds | binds
B19 | 42 pM | 0.982 nM | binds | binds
B20 | 0.201 pM | 1.64 nM | binds | binds
B21 | 2.73 pM | 1.53 nM | binds | binds
B22 | 5.09 pM | 1.72 nM | binds | binds
B23 | 0.437 pM | 0.956 nM | binds | binds
B24 | 2.39 pM | 2.14 nM | binds | binds
